Patent US20080107658A1 (AstraZeneca / MedImmune, published 2008)
Where a chain is given by its changes, count along the chain named. Where two headings read alike, the source gives them in different places. Each block holds one molecule with its values, some of them ahead of it.

Legend:
[1] = biological target: T1, rat nerve growth factor (beta-NGF) (rat, UniProt P25427 122-241); assay: inhibition of rat 125I-NGF binding to coated TrkA fusion protein
Procedure: (§1) Human TrkA and p75 receptor fusion proteins (R&D Systems) were diluted in Dulbecco's PBS (Gibco) to final concentrations of 10 nM and 0.6 nM, respectively. Maxisorp Nunc white 96 well microtitre plates (Nalge Nunc) were coated overnight at 4° C. with 100 μl/well of the diluted TrkA or p75 receptor solution. Plates were washed 3 times with PBS Tween 20, and then blocked with 200 μl/well 3% w/v bovine serum albumin (BSA) in PBS. Plates were washed after 1 h incubation at room temperature. Test antibodies were diluted to the desired concentration in assay buffer (0.5% w/v BSA and 0.05% v/v Tween 20 in PBS). […] Duplicate wells were prepared for each concentration of test sample. […] Bound radiolabel was quantified by addition of 100 μl/well Microscint 20 (Perkin Elmer) followed by counting using a Packard TopCount microplate liquid scintillation counter. Data were plotted and analysed using Graphpad Prism software to calculate IC₅₀ values for each experiment, and to derive the corresponding Ki according to the Cheng-Prusoff equation; Ki=IC₅₀/(1+D/Kd) Where: [0257]

[2] = biological target: T2, human nerve growth factor (beta-NGF) (human, UniProt P01138 122-241); assay: inhibition of human 125I-NGF binding to coated p75 fusion protein
T2 sequence (P01138 122-241): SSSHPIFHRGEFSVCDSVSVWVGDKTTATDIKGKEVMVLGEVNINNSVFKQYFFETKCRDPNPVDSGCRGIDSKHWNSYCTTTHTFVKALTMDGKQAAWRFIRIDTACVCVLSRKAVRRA
Procedure: as §1

[3] = biological target: T1, rat nerve growth factor (beta-NGF); assay: cell-based or functional assay
[4] = biological target: T2, human nerve growth factor (beta-NGF); assay: cell-based or functional assay
[5] = biological target: T2, human nerve growth factor (beta-NGF); assay: inhibition of human 125I-NGF binding to coated TrkA fusion protein
Procedure: as §1

[6] = biological target: mouse nerve growth factor (mouse, UniProt P01139 122-241); assay: cell-based or functional assay
mouse nerve growth factor, sequence (P01139 122-241): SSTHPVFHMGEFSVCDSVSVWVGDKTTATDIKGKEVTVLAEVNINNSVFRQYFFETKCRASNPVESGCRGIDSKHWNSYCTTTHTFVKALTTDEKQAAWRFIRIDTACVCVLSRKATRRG

[7] = biological target: T1, rat nerve growth factor (beta-NGF); assay: inhibition of rat 125I-NGF binding to coated p75 fusion protein
Procedure: as §1

[8] = biological target: T1, rat nerve growth factor (beta-NGF); assay: cell-based or functional assay; remark: listed apart in the source
[9] = biological target: T2, human nerve growth factor (beta-NGF); assay: cell-based or functional assay; remark: listed apart in the source
[10] = biological target: T1, rat nerve growth factor (beta-NGF); assay: cell-based or functional assay; remark: listed apart in the source
[11] = biological target: T2, human nerve growth factor (beta-NGF); assay: cell-based or functional assay; remark: listed apart in the source
[12] = biological target: T1, rat nerve growth factor (beta-NGF); assay: inhibition of rat 125I-NGF binding to coated p75 fusion protein, Cheng-Prusoff, n=3
Procedure: (§2) Competition binding experiments were designed in order to calculate binding inhibition constant (Ki) values. […] Ki values were then derived using the Cheng-Prusoff equation.
as §1

[13] = biological target: T2, human nerve growth factor (beta-NGF); assay: inhibition of human 125I-NGF binding to coated TrkA fusion protein, Cheng-Prusoff, n=3
Procedure: as §2, §1

[14] = biological target: T1, rat nerve growth factor (beta-NGF); assay: inhibition of rat 125I-NGF binding to coated TrkA fusion protein, Cheng-Prusoff, n=3
Procedure: as §2, §1

[15] = biological target: T1, rat nerve growth factor (beta-NGF); assay: rat 125I-NGF saturation binding to captured IgG4, one-site model
Procedure: (§3) Briefly, flashplates (Perkin Elmer SMP200) were coated with 100 μl/well of 2.2 μg/ml goat anti-human IgG (Sigma-Aldrich, UK) in phosphate buffered saline (PBS) for 1 h. Wells were washed with PBS and then blocked for 1 h with 200 μl/well PBS containing 3% w/v bovine serum albumin (BSA; Sigma-Aldrich, UK). […] Following incubation for 1 h plates were washed with PBS.
(§4) Plates were incubated overnight, and wells counted for 1 min on a gamma counter (TopCount NXT, Perkin Elmer). Specific binding was calculated according to the formula ‘specific binding=total binding−non-specific binding’. Binding curves were plotted and binding parameters determined according to a one-site saturation binding model using Prism software (GraphPad Software Inc., USA).

[16] = biological target: T2, human nerve growth factor (beta-NGF); assay: inhibition of human 125I-NGF binding to coated p75 fusion protein, Cheng-Prusoff, n=3
Procedure: as §2, §1

[17] = biological target: T2, human nerve growth factor (beta-NGF); assay: human 125I-NGF saturation binding to captured IgG4, one-site model
Procedure: as §3, §4

T1 sequence (P25427 122-241): as the sequence (P01139 122-241) above, with A40G, R50K, S61P, E94D, T117A counted along it

IC50 [1]: 1.48 nM | Ki [1]: 1.38 nM | IC50 [2]: 0.304 nM | Ki [2]: 0.252 nM | IC50, FLIPR calcium mobilisation [3]: 0.79 nM | IC50, TF-1 cell proliferation [3]: 5 nM | IC50, calcium mobilisation assay [3]: 0.79 nM | IC50, FLIPR calcium mobilisation [4]: 0.76 nM | IC50, TF-1 cell proliferation [4]: 6 nM | IC50, calcium mobilisation assay [4]: 0.76 nM | IC50 [5]: 1.94 nM | Ki [5]: 1.76 nM | IC50, FLIPR calcium mobilisation [6]: 1.4 nM | IC50, TF-1 cell proliferation [6]: 7 nM | IC50 [7]: 2.94 nM | Ki [7]: 2.67 nM
Molecule: mouse anti-human NGF MAB256 (R&D Systems) (antibody)
IC50, PC12 cell survival [3]: 44 nM | IC50, PC12 cell survival [4]: 23 nM

IC50 [1]: 0.31 nM | Ki [1]: 0.288 nM | IC50 [2]: 0.57 nM | Ki [2]: 0.472 nM | IC50 [5]: 0.368 nM | Ki [5]: 0.333 nM | IC50 [7]: 0.587 nM | Ki [7]: 0.532 nM
Molecule: mouse anti-mouse NGF MAB5260Z (Chemicon) (antibody)

pKi [12]: 9.24 | IC50 [1]: 0.538 nM | Ki [1]: 0.499 nM | pKi [13]: 9.59 | pKi [14]: 9.18 | Kd [15]: 0.5 nM | pKi [16]: 9.56 | IC50 [2]: 0.348 nM | Ki [2]: 0.288 nM | IC50 [5]: 0.204 nM | Ki [5]: 0.184 nM | IC50, FLIPR calcium mobilisation [10]: 0.27 nM | IC50, TF-1 cell proliferation [10]: 1.44 nM | IC50, FLIPR calcium mobilisation [11]: 0.22 nM | IC50, TF-1 cell proliferation [11]: 0.44 nM | IC50, FLIPR calcium mobilisation [6]: 0.18 nM | IC50, TF-1 cell proliferation [6]: 0.99 nM | IC50 [7]: 0.781 nM | Ki [7]: 0.708 nM | Kd [17]: 0.37 nM
B3: G1152H5 human IgG4 (antibody, V domains shown)
VH: QVQLVQSGAEVKKPGSSVKVSCKASGGTFSTYGISWVRQAPGQGLEWMGGIIPIFDTGNSAQSFQGRVTITADESTSTAYMELSSLRSEDTAVYYCARSSRIYDMISSLQPYYDMDVWGQGTMVTVSS
VL: QSVLTQPPSVSAAPGQKVTISCSGSSSNIGNNYVSWYQQLPGTAPKLLIYDNNKRPSGIPDRFSGSKSGTSATLGITGLQTGDEADYYCGTWDSSLSAWVFGGGTKLTVL
notes: tested as whole human IgG4; also called germlined 1152H5
IC50, PC12 cell survival [10]: 7.3 nM | IC50, PC12 cell survival [11]: 1.1 nM

pKi [12]: 9.55 | IC50 [1]: 0.151 nM | Ki [1]: 0.14 nM | pKi [13]: 10.3 | pKi [14]: 9.79 | Kd [15]: 0.44 nM | pKi [16]: 9.85 | IC50 [2]: 0.188 nM | Ki [2]: 0.155 nM | IC50 [5]: 0.068 nM | Ki [5]: 0.061 nM | IC50, FLIPR calcium mobilisation [10]: 0.29 nM | IC50, TF-1 cell proliferation [10]: 0.72 nM | IC50, FLIPR calcium mobilisation [11]: 0.33 nM | IC50, TF-1 cell proliferation [11]: 0.42 nM | IC50, FLIPR calcium mobilisation [6]: 0.26 nM | IC50, TF-1 cell proliferation [6]: 0.55 nM | IC50 [7]: 0.302 nM | Ki [7]: 0.274 nM | Kd [17]: 0.35 nM
B4: 1252A5 IgG4 (antibody, V domains shown)
VH: B3 VH with M105L, I106N, S107P, Q110T, P111A
VL: B3 VL
notes: tested as whole human IgG4; also called germlined 1133C11
IC50, PC12 cell survival [10]: 2.7 nM | IC50, PC12 cell survival [11]: 0.94 nM

IC50, calcium mobilisation assay [8]: 61 nM | IC50, calcium mobilisation assay [9]: 30 nM | IC50, FLIPR calcium mobilisation [10]: 61 nM | IC50, FLIPR calcium mobilisation [11]: 30 nM | IC50, FLIPR calcium mobilisation [6]: 54 nM
B7: 1083H4 human IgG4 (antibody, V domains shown)
VH: QMQLVQSGAEVKKTGSSVKVSCKASGYTFAYHYLHWVRQAPGQGLEWMGGIIPIFGTTNYAQRFQDRVTITADESTSTAYMELSSLRSEDTAVYYCASADYVWGSYRPDWYFDLWGRGTMVTVSS
VL: QSVLTQPPSASGTPGQRVTISCSGSSSNIGSNTVNWYQRLPGAAPQLLIYNNDQRPSGIPDRFSGSKSGTSGSLVISGLQSEDEADYYCASWDDSLNGRVFGGGTKLTVL
IC50, PC12 cell survival [11]: ~1100 nM

The next lines start with the molecule.

B1: 1024C4 human IgG4 (antibody, V domains shown)
VH: QVQLQESGGGVVQPGRSLRLSCAASGFAFKKYGLHWVRQAPGKGLEWVGVTSYDGSKNYYADSVKGRFTISRDNSKNTLYLQVNSLRPEDTAVYYCAKDGEVGDLHLVPFRQDSGLDVWGRGTLVTVSS
VL: QSVLTQPPSVSVSPGQTASITCSGDNLGDKYVHWYQQKPGQSPVLVTYQDTKRPSGIPERFSGSNSGNTATLTISGTQAMDEAGYYCQAWDSSTVVFGGGTKLTVL
IC50, calcium mobilisation assay [8]: ~565 nM | IC50, calcium mobilisation assay [9]: ~410 nM

B2: 1021E5 human IgG4 (antibody, V domains shown)
VH: EVQLVQSGAEVKKPGSSVKVSCKASGGTFSTYGISWVRQAPGQGLEWIGGIIPIFDTGNSAQSFQGRVTITADESTSTAYMEVSSLRSDDTAVYYCASSSRIYDYAGGDHYYYDMDVWGQGTMVTVSS
VL: B3 VL with S2A, P8S, A12T, A13P
IC50, calcium mobilisation assay [8]: 75 nM | IC50, calcium mobilisation assay [9]: 76 nM | IC50, FLIPR calcium mobilisation [10]: 75 nM | IC50, FLIPR calcium mobilisation [11]: 76 nM | IC50, PC12 cell survival [11]: ~1300 nM | IC50, FLIPR calcium mobilisation [6]: 47 nM

B5: 1064F8 human IgG4 (antibody, V domains shown)
VH: EVQLVQSGAEVKKPGSSVKVSCKASGGTFSSYAYTWVRQAPGQGLEWMGGIVPIFGSTNYAQKFQGRLTITADEFTSTAHMELSSLTSADTAVYYCAGGSDLYCSGGNCYGGGHYYYYMDVWGQGTTVTVSS
VL: SSELTQDPAVSVALGQTVRITCTGTSSDVGGYNYVSWYQQHPGKAPKLMIYEGSKRPSGVSNRFSGSKSGNTASLTISGLQAEDEADYYCSSYTTRSTRVFGGGTKLTVL
IC50, calcium mobilisation assay [8]: 5.5 nM | IC50, calcium mobilisation assay [9]: 2.5 nM

B6: 1016A8 human IgG4 (antibody, V domains shown)
VH: EVQLVQSGAELKKPGASVKVSCKASGYPFTSYYMHWVRQAPGQGLEWMGLVDPEDGETIYAEKFQGRVTITADTSTDTAYMELSSLRSEDTAVYSCATSSHNYGTASYYHYGMDVWGRGTMVTVSS
VL: B7 VL
IC50, calcium mobilisation assay [8]: 14 nM | IC50, calcium mobilisation assay [9]: 65 nM

B8: 1022E3 human IgG4 (antibody, V domains shown)
VH: QVQLVQSGAEVKKPGASVKVSCKASGYSFINYSMHWVRQAPGQGLEWIGIINPGGDSTKYTQRFQDRVTMTWDTSTSTVYMDLSSLRSEDTAIYYCARGLHPIPMMLATINPIFAYWGQGTLVTVSS
VL: SSELTQDPAVSVALGQTVRITCRGDSLRNYYANWYQQKPGQAPVLVIYDENKRPSGIPDRFSGSGSGNTASLTITGAQAEDEADYFCNSRDTFGYVRDVLFGGGTKVTVL
IC50, calcium mobilisation assay [8]: 14 nM | IC50, calcium mobilisation assay [9]: 18 nM

B9: 1033G9 human IgG4 (antibody, V domains shown)
VH: EVQLVQSGAEVRKPGSSVKVSCKASGDTSTLYSINWVRQVPGQGLEWMGAIIPIFGLTDYAQEFQGRLTITADESTNTAYMELTGLRSEDTAIYYCARNLFTTLSYWYFDLWGQGTLVTVSS
VL: SSELTQDPAVSVALGQTVRITCQGDRLRSYYASWYQQKPGQAPVLVIYGKNNRPSGIPDRFSGSSSGNTASLTITGAQAEDEADYYCNSRDSSGNHVVFGGGTLLTVL
IC50, calcium mobilisation assay [8]: 26 nM | IC50, calcium mobilisation assay [9]: 55 nM
